Reference: the domain aggregation screens of Martell et al. (2025)

Experiment: soluble fraction after stress (log2 fold change); higher = more stays soluble; pooled small domains, quantitative proteomics
Settings: stress: 75 degC
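Note: 20 min heating vs room temperature control held 20 min.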

Sequence | soluble fraction (log2)
HMDAYMIGHNIAKWRKEKGMTQDQLAEHLSVSGQAVSKWENGASLPDIAILPKLAEIFDVTMDQLFSR | 0.0534
HMDDAIAEKTGGAVSSVNQRQAILDHIREAYGIELESLRSTDIERYLDDPEIPEPVKDILRDRLRGAK | 0.204
HMDDDAELLLKKLSAAGGELPFHDRSEPAEIEAAFGLSKSAFKRALGKLLKAGKVVKTQQGIQLK | 0.162
HMDDDIKNALDVLPEQYRMTVYYADVEGLAYKEIGAIMNTPIGTVMSRIHRGRSQLRVLLAAVAADR | 0.316
HMDDFITLVIHTPAHAQNLRNILESHGMEVRLEDFVSFKSPVAVAQRVKIRPKDLPLALKIIESGE | 0.19
HMDDFVEIDGKKYEIDMSFDNILRLFDLLKDKSLNDVTKIETGLIMLIDDSLDDYDTEEKADIFVQIF | -0.411
HMDDGALQIRLGPQALQQRLDKLGYSLNKEDLDLVYQYFLHSADSKGAVYDQELRELMGEAGVE | -0.102
HMDDIHTFVYETETPFDPQKLDRYIGSLTAVYGQDMLRYKGILYFAGVDRRVVFQGVHMLAV | -0.0939
HMDDILAYEIEDKEDLENLSLGKSIGINLNKLIKPTLNSFDNSLLFLSKKGNIISYGKLNGDLFKPKKVL | 0.346
HMDDINVSNSKNIVPNVTGHTGSKAIPVLENLGLDVQYSGFGKVTNQSIPAGTRFKKGETIYLMLE | 0.03
HMDDIVFPNPTKNQINVSIDGLKNIYNLSGKLLISTNDKIIDVSILKAGVYFINTNEQFYKFVK | -1.41
HMDDIVPHSTKNHIIKTFLSLMNSLDIITDKNKKSLNQNVHIIFNKFNFSKKEANLFIGVLNRIQKALK | 0.602
HMDDLFGNAIEMFNNQRYDMTYELLVQLLSETPNNEKAWQLLADTKFMLGDYDDALHIVGKAAK | -1.05
HMDDPWHNLANAIVAVAADDYRSALRNEDEGLLKSLELFFHSEWYRILTDVDADRLLGMLRRERS | -1.71
HMDDTPLNNVIKKIAALPENITLADKSAVLSAWEAYQALSVNLKAQVSNSELLIKAYETILQLEGEDQIK | 0.437
HMDDYRIEDMMTVVEEQVIRQKETNLSWFFKRAGSLNEIITIFLAALELIKVHRVYVKQEHNFDDIILRKE | 0.305
HMDEAAGVLTQLRAFIAASNLSPGLRLPPERELAEQLGVTRAELRKALAVLEAEGLLWRQVGKGTFYGARP | -1.35
HMDEAEELYQAVQALKPKYREVILLHYYQGLRVGEIAAILRAPQSTVSIRLRRARQMLNRMLG | -0.701
HMDEALLRATLLDVLVKHHPKIGDKLDVVFALAKAWVSSGSDDDFEVLEKYMERLKPDEALMLASGFSNML | -0.886
HMDEDTWKLYKRAYKKYYARYMKGNMSEAAFKAWGEQAAADRDAAIEQLRATTDAALSASIIQQLKEKLNR | -0.995
HMDEEDVLNELIRRLALTADDRLLLSLSYEDGLSSRKIATLLETSAATVQRRLAGLHHQLEQALRVMGLA | -0.323
HMDEEGDALDREYEDQIRLGDEAFDAEDWTSAQRAYTAALELRPDERYPKNRLRRLASLQEDV | 0.245
HMDEETVALQKAIHSLPPKQQAVFNMRYYDEMSFREIADANETTESSAKANYHFAKAKIIEQMKR | 0.113
HMDEILHHPSYRAIYEYMLDHKHVKTKDIAALLNVKEPRARQLLKEMIDKHFIIALGSNRNREYELL | -0.94
HMDEKSGWLHLAPHEGALRAALYAEHAVQEERTAPDGSQWLRLVLREKHYHQIQSKYNRRLTLHTQPDPS | -2.58
HMDENDPYEILEIDRLASDDQVKAKYRALIRENHPDVLMAKGVPQEFIDLANRKMAVINAAYDRIEKEREF | 0.122

Sequence | soluble fraction (log2)
HMDEPGAGYKWREDVLLRVMASHGIEESLRDDFVRHAVGFDNDDNMYLKKVEIENAAAAWVAN | -0.359
HMDETELLLQKAIATLPDKQRVVFNLKYFDEMKYEEMSELLETSVGALKASYHLAVKKIEQFFHDA | -0.555
HMDETYRRQLEDLAREHGAEYLHGILREVDPASAEAIHANNIKRVIRALEFYHLSGKKISEHNETERQ | -0.12
HMDEVHYLADKERGTTWEEILIHADRDIKFLSLSATINNKNEFLEWLVSLRGTTSLIHSSTRPIPLEI | 0.231
HMDEVLDQFVRGQIYGYIRANPGDIYSSIRDNLGLKNGVTTYHLDVLAREEYVYSEIDGTNRRFYPSGWEE | -2.77
HMDEVVVVERGGVQITMSEIDAKIMELPVDVRPSYLDSPERLQNFVSNLLLEKQAAQLKSQY | -0.142
HMDEWDPAILYVGLDYEDAAQIATRLATSGVPYRLSPDGTMITVPDDQVNNMRLTLAGEGFPH | -0.0325
HMDEYFNPETVVHYLRELFDTYRENGGNPFEWFHSTFESVNLNPQNYRKDLITTIEKALIEWIEIFEKQ | -0.697
HMDFDPDVPSREDILQAFRDSKPPLTVNALISEFGLSRDASIVGLERRMGAMQRDGQLEQTPSGWQLSV | -0.164
HMDFFVLVGAYKTPDEAETIRAKIAFSGLDSSVSHGNDGRYRVRIGPFHSEGDARKAQSTLRANDIPGQII | -1.01
HMDFGMPEELQKKLDKMPALKAAFEALTPGRQRGYIFYFSQPKQSKTRELRIEKSIEQIMNGKGLND | -0.414
HMDFIEYIISEESKGLRADQAISMENDKFSRSLIQKWIKKGRVLVNGRKIKPKDIVNLNDKITINPEESIN | -0.36
HMDFITPYEIEQGQYEGAELYEDGKFEEAFSLSSIAAQRGMKTAQYLLGIMFLKGEYVDQSLAIGMAW | -0.52
HMDFPYISGIEIAAIKNREFIRIETDKAQEIAIALDKSGIPFSARFSDAEMVLTYDGSYKEQVEDIIAKA | -0.705
HMDFSERLARAMSLAGYTQGRLAKEVGMAQSSVNKLLNGANGSRKTVEIASVLGVRPEWLSTGAGEML | -0.546
HMDFSSRLKDERKRLKLSQAQLGEAGGVSKDAQLNYENGSRSPSASYLELIAREGVDVQFLLTGKRS | 0.155
HMDFSYTVGDIDEPIDSRGNSVIMLRKLAWGSNAEKLEIRRWIIDIDSERANKGVTFLTEEGPHNLVRV | 0.272
HMDFTISDADFHRLVQFIQQNYGVALSKKRQLISSRLSHSLRELGYKDFRTFLEHLFSTRDPADLELVLNK | -1.59
HMDFYVILGVDRAASLSDVKRAYRRLARKHHPDINPGDPESDAFFMRVTEAYETLVDPDRRQEYDEHG | -0.75
HMDGEFINLKNRAGTEIEARILNYQNGQVKLERKDGVTFVVSISMFDAKSVIAINHKIAEIIDT | -2.28
HMDGIDALEPLMRRVFEALPQRRSMTIERAAVAAGLDEESVKIALVRLQLEGYVANDERGWHRSKSPH | -2.48
HMDGIGLRVRMIREGVGLTQKQLAEHLGMQRTALVQVEAGSRKLSASELIGVARFFNITVEQFLDPEK | -3.5
HMDGIPVPDVKGTVEAEATATLKNSGFEVTKTQDFSDTVEAGKVISQNPAGGSSAASGSSVTLVISQGPN | -0.0786
HMDGISANAVKALIESLIAGEDKRKPLSDQAMSDRLALQGIVLARRTVAKYREELNFPPAHQRKQK | -1.41
HMDGLPYPEAAEEPIAQVARNLGMDATRVSIALQEAKLIFRNLDETLAEIAANNGTTPQVVYDAIRHLEPP | -0.248
HMDGLTEQQADDILAFISIKGTNAEVLAALENYAGRNETFDTGLSELKVVASNLAAFGMPEENFVVDL | 0.283

Sequence | soluble fraction (log2)
HMDGPGDRLLIAIQENSMTQKKFAQLIGMSPNGLNSIIKGKKRLSRVLAIATERLTGVRADWILQNEQPK | -0.0913
HMDGQPLSERQQEILRWVAEGLSNREIGERLNITPNTVRDHLSEVMRRLEVSNRTSAVSTAFHLGLLP | -0.0654
HMDGRIRFRHAALHDPDVAARLHDYLTTSLPGVRSARVNSQTGSLLLEYDPEVLDRSTLLDLAARAESLL | -0.493
HMDGRSLSHATLEEIRIRAVQRVEAGESPEVVVKALGFSRPRIYEWLALYREGGLEALRAKPV | -1.1
HMDGSEYAGTVRLGDGTLQPVPRFETSNSETPKYLYLVMDVTHDPPVYILEHESAELKSVLGGLVLIGSYS | 0.0157
HMDGTVRGKTTFQELLDWGVPQERIEAVLGGPIPAPGVVIKDYVTAQGKEFSAVRDALQAEVDAVLK | 0.144
HMDGVLLDHLDGFVTTRRGVEAWLEQPTSFNKPSILLVAADGESTRRAIPSIAFGYDFASRHDIPAYDAG | -0.44
HMDGVPPAGSRIRLTVSTQVGDKEFEGTLVPPAGVDLLTLKLANGYNLSHSIADVREVVLIEEGLQGEEP | -0.191
HMDGVSLLFKLMETLPEQQKTILHLRDVEQLEFAEIAKITNTSQANVRVALSRARKKIKDLLLKQY | -2.52
HMDGVYLKSLKQTEQHIHWSGYAQSNAWVSTLMRNLDASPWFESPLLIEIKAATINNSRSNEFDLNVRL | 0.0974
HMDGYTVYTNWGSDTNVARSDQQIQSQIPQLSGATIVGVWTKPIATGGTSYKIRYRTNSGAFTEIDVDQ | -0.256
HMDHKTKLQEVLQKSGDVFIEYRLIKEEGPAHERIFWIEVYVDDQLIGTGQGKSKKLAEQAAAENALAALE | -1.21
HMDIEHREMKLQKLVITADSPLVGKTLKESNVRQRYNFMVVGVEEGQKNLTMINPNRRFEVGDIVWVVGEE | -0.743
HMDIFGREAEVEQILQEVRFGDDPHYRLSIGILPVTGHAGAGKTALVRFIFHHEVARAEFTVRMWVHV | 0.154
HMDIGKNIQTIRYANKLTQDQVIAKLNLMGISMSKSTYAKLETNRMNIKVSELVALAKIFHTDINAF | -2.62
HMDIGTYTVTASALNIRQYPTASSAKTGSYPNGSIVTIYEYLTDGSWGRTDDGWISMNYVSRRY | -1.93
HMDIHSEEYILGQNIRKYRLRLGWSQADLSNAVDIDRADISKYENGAKGIMSSTLLRKFAKALGVSMDALM | -3.32
HMDILPRMVASEMRAVGVPPERMTREEKGTVIRNLMNAGIHQMKGAVVEIARQLHLSEPTVYRYIKREKG | -0.664
HMDINMELGKNIRRLRKLNNLTQQSLANQMNRSKTLIALWEKGERDPSSIDLKRLSEIFNVRADDIIG | -0.799
HMDIRMLLSDREEEIMILLSKGLSISEAANRMQIGQASAATYLNRARRKLKAETVRQAVAIWTGD | -1.87
HMDISAFDTEFIISKFGGIRPMAQKLGVPVSTVQGWKQRQTIPQNRMGDILEAAKNYNLELTP | -0.112
HMDISPAAKQRLALIQPLLEKNAEAITDRKLRNAVAKDIANNQNTTVRRVLRLYYRYLATGQVM | 0.192
HMDIVIPIQVKNVSSGEVLDFPSIRAAARDLKFPKTTISLGVRYAGEKAYKGFVMRYRSDDPWPIVQES | -2
HMDIYLDEVNRKILHLLSQGIKTRSLREYINLSMSAIEKRKKHMKELFLVEDGKDETLLNEARNKGF | -1.88
